In the test the target is human VEGF165 ligand (human) (UniProt P15692). The test can be described thus: serial dilution mixed with 50 pM human VEGF165 in solution, unbound VEGF165 measured by ELISA. A general note: An ELISA detects its analyte on a solid surface through an enzyme-linked reagent.

This passage reports IC50 results from patent publication US20210139559A1.

Sequence of human VEGF165 ligand (human) (P15692 other isoform, or with tags, fused parts or gaps limits assumed): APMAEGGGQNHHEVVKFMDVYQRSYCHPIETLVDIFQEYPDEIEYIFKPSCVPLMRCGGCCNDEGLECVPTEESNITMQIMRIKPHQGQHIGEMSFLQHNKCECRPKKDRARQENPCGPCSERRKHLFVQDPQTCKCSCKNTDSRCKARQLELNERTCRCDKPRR

On to Aflibercept (Fc fusion), for which the IC50 came to 9.82 pM.

Broadly, the IC50 is the point on the concentration scale where inhibition reaches its midpoint.
